Laboratory results from publication PMC10321576 (2023).
Bridge positions count the residues as written; N and C are the ends. Square brackets hold non-standard residues; d marks the D form. Ends that are not written are not given here. Lys(Me3) = C[N+](C)(C)CCCC[C@H](N)C(=O)O

B1: KDM7B (PHF8, JHDM1F) dual domain (PHD-JmjC) (domain or fragment)
chain: MASVPVYCLCRLPYDVTRFMIECDMCQDWFHGSCVGVEEEKAADIDLYHCPNCEVLHGPSIMKKRRGSSKGHDTHKGKPVKTGSPTFVRELRSRTFDSSDEVILKPTGNQLTVEFLEENSFSVPILVLKKDGLGMTLPSPSFTVRDVEHYVGSDKEIDVIDVTRQADCKMKLGDFVKYYYSGKREKVLNVISLEFSDTRLSNLVETPKIVRKLSWVENLWPEECVFERPNVQKYCLMSVRDSYTDFHIDFGGTSVWYHVLKGEKIFYLIRPTNANLTLFECWSSSSNQNEMFFGDQVDKCYKCSVKQGQTLFIPTGWIHAVLTPVDCLAFGGNFLHSLNIEMQLKAYEIEKRLSTADLFRFPNFETICWYVGKHILDIFRGLRENRRHPASYLVHGGKALNLAFRAWTRKEALPDHEDEIPETVRTVQLIKDLAREIRLVEDIFQQN

Columns and labels:
OC3 = test: ITC
KDM7B PHD-finger [1] = biological target: T1, KDM7B PHD-finger (UniProt Q9UPP1-2 1-447)
T1 chain: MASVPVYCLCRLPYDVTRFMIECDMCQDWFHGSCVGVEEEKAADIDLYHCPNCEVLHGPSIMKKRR

[2] = biological target: T2, KDM7A (KIAA1718) PHD-finger; test: ITC
T2 chain: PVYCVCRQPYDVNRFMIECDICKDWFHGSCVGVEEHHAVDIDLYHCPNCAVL

ING2 PHD-finger [3] = biological target: T3, ING2 PHD-finger; test: BLI
T3 chain: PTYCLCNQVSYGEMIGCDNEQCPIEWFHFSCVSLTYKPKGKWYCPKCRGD

KDM7C (PHF2) PHD-finger [4] = biological target: T4, KDM7C (PHF2) PHD-finger; test: BLI
T4 chain: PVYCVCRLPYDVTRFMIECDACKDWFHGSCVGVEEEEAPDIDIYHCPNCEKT

[5] = biological target: SPIN1 triple tudor domain; test: BLI
[6] = biological target: KDM7A (KIAA1718) dual domain; test: BLI
[7] = biological target: T2, KDM7A (KIAA1718) PHD-finger; test: BLI
DIDO1 PHD-finger = biological target: T5, DIDO1 PHD-finger; test: BLI
T5 chain: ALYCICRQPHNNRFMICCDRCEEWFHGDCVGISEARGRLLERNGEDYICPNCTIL

TAF3 PHD-finger [8] = biological target: T6, TAF3 PHD-finger; test: BLI
T6 chain: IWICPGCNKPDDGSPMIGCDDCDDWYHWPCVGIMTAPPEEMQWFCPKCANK

[9] = biological target: KDM7A (KIAA1718) dual domain; test: ITC
[10] = biological target: T2, KDM7A (KIAA1718) PHD-finger; test: ITC
KDM7B PHD-finger [11] = biological target: T1, KDM7B PHD-finger; test: ITC; His-Trx-tagged PHD
ING2 PHD-finger [12] = biological target: T3, ING2 PHD-finger
KDM7C (PHF2) PHD-finger [13] = biological target: T4, KDM7C (PHF2) PHD-finger
[14] = biological target: SPIN1 triple tudor domain
[15] = biological target: KDM7A (KIAA1718) dual domain
[16] = biological target: T2, KDM7A (KIAA1718) PHD-finger
TAF3 PHD-finger [17] = biological target: T6, TAF3 PHD-finger
[18] = biological target: B1
KDM5A PHD3 PHD-finger = biological target: T7, KDM5A PHD3 PHD-finger
T7 chain: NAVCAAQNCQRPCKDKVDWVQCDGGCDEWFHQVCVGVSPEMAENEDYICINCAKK

KDM7A (KIAA1718) dual domain, sequence (chain, as listed by the source): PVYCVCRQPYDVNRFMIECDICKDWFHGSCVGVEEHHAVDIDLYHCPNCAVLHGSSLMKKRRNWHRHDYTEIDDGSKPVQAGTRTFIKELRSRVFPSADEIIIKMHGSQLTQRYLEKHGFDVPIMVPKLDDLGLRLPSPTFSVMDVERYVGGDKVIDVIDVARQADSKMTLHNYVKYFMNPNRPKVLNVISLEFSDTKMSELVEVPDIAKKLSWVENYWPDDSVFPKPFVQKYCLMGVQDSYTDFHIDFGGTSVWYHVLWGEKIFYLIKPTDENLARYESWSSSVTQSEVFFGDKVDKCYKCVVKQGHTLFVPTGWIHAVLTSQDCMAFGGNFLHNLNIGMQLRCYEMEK
SPIN1 triple tudor domain, sequence (chain, as listed by the source): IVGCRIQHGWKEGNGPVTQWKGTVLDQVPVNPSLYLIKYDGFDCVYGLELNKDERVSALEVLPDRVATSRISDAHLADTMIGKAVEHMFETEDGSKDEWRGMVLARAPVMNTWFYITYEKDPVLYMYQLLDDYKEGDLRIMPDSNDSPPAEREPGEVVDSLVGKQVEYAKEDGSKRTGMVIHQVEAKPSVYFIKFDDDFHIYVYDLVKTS

B1
Kd (OC3): 163 nM

YYLT[dA]PYPSVFRTC (ends and bridges not checked) [OC9 with H5 replaced with D-alanine]
IC50 (KDM7B PHD-finger [1]): 20 nM

YYL[dA]HPYPSVFRTC (ends and bridges not checked) [OC9 with T4 replaced with D-alanine]
IC50 (KDM7B PHD-finger [1]): 45 nM

{CH2CO}-YYLTHPYPSVFRTC (thioether N-14) [OC9, de novo cyclic peptide from mRNA display]
Kd [2]: 33 nM | Kd (ING2 PHD-finger [3]): > 1000 nM | Kd (KDM7C (PHF2) PHD-finger [4]): 1 nM | Kd [5]: > 1000 nM | Kd [6]: 39.8 nM | Kd [7]: 20 nM | Kd (DIDO1 PHD-finger): > 1000 nM | Kd (TAF3 PHD-finger [8]): > 1000 nM | Kd [9]: 31.6 nM | Kd [10]: 31.6 nM | Kd (KDM7B PHD-finger [11]): 8 nM | IC50 (ING2 PHD-finger [12]): > 5010 nM | IC50 (KDM7C (PHF2) PHD-finger [13]): 25.1 nM | IC50 [14]: > 2000 nM | IC50 [15]: 126 nM | IC50 [16]: 63.1 nM | IC50 (TAF3 PHD-finger [17]): > 5010 nM | IC50 [18]: 100 nM | IC50 (KDM5A PHD3 PHD-finger): > 5010 nM

YYLTHPYPS[Lys(Me3)]FRTC (ends and bridges not checked) [OC9 V10Kme3]
IC50 (KDM7B PHD-finger [1]): 234 nM
